Source: patent US12263210B2, “Immunogenic compounds for cancer therapy” (priority 2016, dated 2025)

Key:
HLA-A*0201 = target: T1, HLA-A*0201 (Homo sapiens, UniProt P04439, D140Y/D185E/D98H/E176V/E277Q/G131W/G231S/I119V/I121R/I166T/I218V/L300P/L318F/N151K/N90K/P208A/P217A/Q86G/Q94H/R138H/R169H/T345S); test: Affinity of the peptide to T2 cell line (HLA-A*0201 expression, FACS); type: cell-based; conditions: for Concentration that induces 20% of expression of the HLA-A*0201 / Mean fluorescence intensity: T2 ATCC cells; for Concentration that induces 20% of expression of the HLA-A*0201: Example 1; for Binding to HLA-A*0201 (in words) / Affinity to HLA-A*0201 compared with the corresponding human peptide (in words): T2 cells; for Affinity to HLA-A*0201 compared with the corresponding human peptide (in words): relative affinity, lower value = higher affinity; for Relative affinity: conc. inducing 20% expression / same of reference peptide HIV pol 589-597; for HLA-A2 labelling at 0.1 μM / HLA-A2 labelling at 1 μM / HLA-A2 labelling at 10 μM / HLA-A2 labelling at 100 μM: percentage of labelling of HIV pol 589-597 at 100 μM; for HLA-A2 labelling at 0.1 μM: peptide 0.1 μM; for HLA-A2 labelling at 1 μM: peptide 1 μM; for HLA-A2 labelling at 10 μM: peptide 10 μM; for HLA-A2 labelling at 100 μM: peptide 100 μM
T1 construct: the human tumoral cell T2 which expresses the HLA-A*0201 molecule; endogenous in cells; host or cells: T2 cells (human, TAP1/2 negative; 'T2 ATCC Cells')
Procedure: Affinity measurement of the peptides is achieved with the human tumoral cell T2 which expresses the HLA-A*0201 molecule, but which is TAP1/2 negative and incapable of presenting endogenous peptides.
T2 cells (2.10^5 cells per well) are incubated with decreasing concentrations of peptides from 100 μM to 0.1 μM in a AIMV medium supplemented with 100 ng/μl of human β2m at 37° C. for 16 hours. Cells are then washed two times and marked with the anti-HLA-A2 antibody coupled to PE (clone BB7.2, BD Pharmagen).
The analysis is achieved by FACS (Guava Easy Cyte). […]

[1] = tested on: IFNγ-producing cells (splenocytes); test: ELISPOT-IFNγ assay on splenocytes of vaccinated β/A2/DR3 mice; type: in vivo, mouse; conditions: for Percentage of ConA-induced response (ELISPOT-IFNγ): mice vaccinated with the labelled peptide (100 μg s.c. + HHD-DR3, IFA, d0/d14), mean, SEM
[2] = ex vivo re-stimulation with IL13RA2-B pAg 10 μM
[3] = ex vivo re-stimulation with IL13RA2-H pAg 10 μM

FLPFGFILV [IL13RA2-B]
Concentration that induces 20% of expression of the HLA-A*0201 (HLA-A*0201): 4.4 µM
Mean fluorescence intensity (HLA-A*0201; peptide at 0.1 μM): 9.9
Mean fluorescence intensity (HLA-A*0201; peptide at 100 µM): 112.03
Binding to HLA-A*0201 (in words) (HLA-A*0201): binds strongly
T cell responses in the ELISPOT-IFNγ assay after vaccination (in words) ([1]; compared to IL13RA2-H-vaccinated animals (group 2)): improved T cell responses
Percentage of ConA-induced response (ELISPOT-IFNγ) [1, 2]: 56.3%
Percentage of ConA-induced response (ELISPOT-IFNγ) [1, 3]: 32.3%

GLPPDVQRV [MMP2-H, reference compound]
Conc. inducing 20% of HLA-A2 expression (HLA-A*0201; Table 8): 1.76 µM

ILLGVVFGI [ERBB2-3B4]
Affinity to HLA-A*0201 compared with the corresponding human peptide (in words) (HLA-A*0201): higher affinity
Conc. inducing 20% of HLA-A2 expression (HLA-A*0201; Table 7): 0.9 µM

ITSDVPFSV [PMEL-B]
Affinity to HLA-A*0201 compared with the corresponding human peptide (in words) (HLA-A*0201): higher affinity
Conc. inducing 20% of HLA-A2 expression (HLA-A*0201; Table 8): 18.24 µM

KLVEWLAML [MAGE C1B]
Affinity to HLA-A*0201 compared with the corresponding human peptide (in words) (HLA-A*0201): higher affinity
Conc. inducing 20% of HLA-A2 expression (HLA-A*0201; Table 8): 30.91 µM

KVVEFLAML [MAGE C1H, reference compound]
Conc. inducing 20% of HLA-A2 expression (HLA-A*0201; Table 8): 60.07 µM

MIAVFLPIV [STEAP-H, reference compound]
Conc. inducing 20% of HLA-A2 expression (HLA-A*0201; Table 8): 33.45 µM

MLAVFLPLV [STEAP-B1]
Affinity to HLA-A*0201 compared with the corresponding human peptide (in words) (HLA-A*0201): higher affinity
Conc. inducing 20% of HLA-A2 expression (HLA-A*0201; Table 8): 5 µM

RLLEETDLV [ERBB2-1B]
Affinity to HLA-A*0201 compared with the corresponding human peptide (in words) (HLA-A*0201): higher affinity
Conc. inducing 20% of HLA-A2 expression (HLA-A*0201; Table 7): 9.5 µM

SLPPDVQQV [MMP2-B]
Affinity to HLA-A*0201 compared with the corresponding human peptide (in words) (HLA-A*0201): higher affinity
Conc. inducing 20% of HLA-A2 expression (HLA-A*0201; Table 8): 0.88 µM

TMNGKSSPV [ENAH-1B]
Affinity to HLA-A*0201 compared with the corresponding human peptide (in words) (HLA-A*0201): higher affinity
Conc. inducing 20% of HLA-A2 expression (HLA-A*0201; Table 9): 33.45 µM
Relative affinity (HLA-A*0201; Table 9): 1.26
HLA-A2 labelling at 0.1 μM (HLA-A*0201; Table 9): 12.71
HLA-A2 labelling at 1 μM (HLA-A*0201; Table 9): 14.18
HLA-A2 labelling at 10 μM (HLA-A*0201; Table 9): 2.93
HLA-A2 labelling at 100 μM (HLA-A*0201; Table 9): 100.24

TMNGSKSPV [ENAH-1H, reference compound]
Binding to HLA-A*0201 (in words) (HLA-A*0201): does not bind
HLA-A2 labelling at 0.1 μM (HLA-A*0201; Table 9): 8.31
HLA-A2 labelling at 1 μM (HLA-A*0201; Table 9): −2.93
HLA-A2 labelling at 10 μM (HLA-A*0201; Table 9): 19.07
HLA-A2 labelling at 100 μM (HLA-A*0201; Table 9): 18.58

VLLGVVFGV [ERBB2-3B2]
Affinity to HLA-A*0201 compared with the corresponding human peptide (in words) (HLA-A*0201): higher affinity
Conc. inducing 20% of HLA-A2 expression (HLA-A*0201; Table 7): 6.9 µM
Relative affinity (HLA-A*0201; Table 7): 0.19
HLA-A2 labelling at 0.1 μM (HLA-A*0201; Table 7): −14.62
HLA-A2 labelling at 1 μM (HLA-A*0201; Table 7): 1.51
HLA-A2 labelling at 10 μM (HLA-A*0201; Table 7): 56.97
HLA-A2 labelling at 100 μM (HLA-A*0201; Table 7): 335.97

VMLGVVFGI [ERBB2-3B3]
Affinity to HLA-A*0201 compared with the corresponding human peptide (in words) (HLA-A*0201): higher affinity
Conc. inducing 20% of HLA-A2 expression (HLA-A*0201; Table 7): 12.5 µM

VMLGVVFGV [ERBB2-3B1]
Affinity to HLA-A*0201 compared with the corresponding human peptide (in words) (HLA-A*0201): higher affinity
Conc. inducing 20% of HLA-A2 expression (HLA-A*0201; Table 7): 9 µM

VVLGVVFGI [ERBB2-3H, reference compound]
Conc. inducing 20% of HLA-A2 expression (HLA-A*0201; Table 7): 16.3 µM
Relative affinity (HLA-A*0201; Table 7): 0.45
HLA-A2 labelling at 0.1 μM (HLA-A*0201; Table 7): −12.61
HLA-A2 labelling at 1 μM (HLA-A*0201; Table 7): −24.03
HLA-A2 labelling at 10 μM (HLA-A*0201; Table 7): 11.93
HLA-A2 labelling at 100 μM (HLA-A*0201; Table 7): 196.47

WLPFGFILI [IL13RA2-H, reference compound]
Concentration that induces 20% of expression of the HLA-A*0201 (HLA-A*0201): 100 µM
Binding to HLA-A*0201 (in words) (HLA-A*0201): does not bind
Percentage of ConA-induced response (ELISPOT-IFNγ) [1, 2]: 2.0%
Percentage of ConA-induced response (ELISPOT-IFNγ) [1, 3]: 1.1%

YLAVFLPIV [STEAP-B2]
Affinity to HLA-A*0201 compared with the corresponding human peptide (in words) (HLA-A*0201): higher affinity
Conc. inducing 20% of HLA-A2 expression (HLA-A*0201; Table 8): 8.22 µM
